These results are taken from US10772928B2, “Modulation and detection of a neuronal alternative splicing regulatory network for treatment and diagnosis of neurological disorders” (The Governing Council of the University of Toronto, priority 2014, dated 2020).

B1: Poldip3 (protein, UniProt Q8BG81 2-420, looked up)
Polymerase delta-interacting …: ADLSLDELIRKRGTAAKGRLSVRPGIGGVRSRVGIQHSLVNQPARTATFQQRFDARQKIGLSDARLKLGVKDAREKLLQKDARFRIKGKVQDAREMLNSRKQQGTVPQKPRQVADAREKISLKRRSPAAFTSPPIGTVTPALKLTKTIQVPQQKAMVPLHAHPAGMRINVVNNHQAKQNLYDLDEDDDIVVPVPPKQMKFAATGSLVHHMTGLSSSKLSMSKALPLTKVVQNDAYTAPVLPSSVRTKALTSMSRTLVNKEEPPKELPPAEPVLSPLEGTKMTVNNLHPRVTEEDIVELFCVCGALKRARLVHPGVAEVVFVKKDDAITAYKKYNNRCLDGQPMKCNLHMNGNVITSDQPILLRLSDSPSVKKESELPRRGNPASSNPPAEVDPDTVLRALFKSSGASVTTQPTEFKIKL
B2: Necap1 (protein, UniProt Q9CR95 1-275, looked up)
Adaptin ear-binding …: MAAELEYESVLCVKPDVSVYRIPPRASNRGYRASDWKLDQPDWTGRLRITSKGKIAYIKLEDKVSGELFAQAPVEQYPGIAVETVTDSSRYFVIRIQDGTGRSAFIGIGFTDRGDAFDFNVSLQDHFKWVKQETEISKESQEMDNRPKLDLGFKEGQTIKLSIGNITAKKGGASKPRASGTGGLSLLPPPPGGKVTIPPPSSSVAISNHVTPPPIPKSNHGGNDSDILLDLDSPAPVSTSAPAPVSTSNDLWGDFSTASSSVPNQAPQPSNWVQF
B3: Ccdc55 (protein, UniProt Q5NCR9 1-542, looked up)
Nuclear speckle splicing …: MAIPGRQYGLILPKKTQPLHRVLQKPSVFGSDSDDDETSVSESLQREAAKKQAMKQTKLEIQKALAEDSTVYEYDSVYDEMQKKKEENNPKLLPGKDRKPKYIHNLLKAVEIRKKEQEKRMEKKIQREREMENGEFDDKEAFVTSAYKKKLEERAEEEEREKRAAALEAHLDVTKQKDLSGFYRHLLNQAVGEEAAPKSSFREARTVIKEEKLRGYPDETNSESRPPQQSCVLQRGAQEAEENPDADREFDDESSEDGEKRDHKVKSRGEDTGASMKHPKHHKNRAHSRSSSEERGLGTKHHSRGSQSRGHEHQDRQSRDQESCHKDRSHREEKSSHRHREASHKDHYWKKHEQEDKLKGREQEERQDREGKREKYSSREQERDRQRNDHDRYSEKEKKRKEKEEHTKARRERCEDSGKHREREKPEGHGQSSERHRDRRESSPRSRPKDDLDQERSSKARNTEKDKGEQGKPSHSETSLATKHRLAEERPEKGSEQERPPEAVSKFAKRSNEETVMSARDRYLARQMARINAKTYIEKEDD
B4: Ddx41 (protein, UniProt Q91VN6 1-622, looked up)
Probable ATP-dependent RNA …: MEDSEPERKRARADEATAGGSRSEDEDEDDEDYVPYVPLRQRRQLLLQKLLQRRRKGATEEEQQDSGSEPRGDEDDIPLGPQSNVSLLDQHQHLKEKAEARKESAKEKQLKEEEKILESVAEGRALMSVKEMAKGITYDDPIKTSWTPPRYVLSMSEERHERVRKKYHILVEGDGIPPPIKSFKEMKFPAAILRGLKKKGILHPTPIQIQGIPTILSGRDMIGIAFTGSGKTLVFTLPVIMFCLEQEKRLPFSKREGPYGLIICPSRELARQTHGILEYYCRLLQEDSSPLLRCALCIGGMSVKEQMETIRHGVHMMVATPGRLMDLLQKKMVSLDICRYLALDEADRMIDMGFEGDIRTIFSYFKGQRQTLLFSATMPKKIQNFAKSALVKPVTINVGRAGAASLDVIQEVEYVKEEAKMVYLLECLQKTPPPVLIFAEKKADVDAIHEYLLLKGVEAVAIHGGKDQEERTKAIEAFREGKKDVLVATDVASKGLDFPAIQHVINYDMPEEIENYVHRIGRTGRSGNTGIATTFINKACDESVLMDLKALLLEAKQKVPPVLQVLHCGDESMLDIGGERGCAFCGGLGHRITDCPKLEAMQTKQVSNIGRKDYLAHSSMDF
B5: Snx8 (protein, UniProt Q8CFD4 1-459, looked up)
Sorting nexin-8: MTGRAMDPLPSPAVAAAAEAEADEEADPPATGPRTSQVTEWRALDPGRMQMPQGNPLLLSYTLQELLAKDTVQVELIPEKKGLFLKHVEYEVSSQRFKSSVYRRYNDFVVFHEVLLHKFPYRMVPALPPKRVLGADREFIEGRRRALKRFINLVARHPPFSEDVLLKLFLSFSGSDVQHKLKEAAQCVGDEFMNCKLAARAKDFLPADIQTQFAMSRELIRNVYNSFYKLRDRAERIASRAIDNAADLLIFGKELSALGSDTTPLPSWAALHLSTWGSLKQALKGLSVEFALLADRAAQQGKKEENDVVEKLNLFLDLLQSYKDLCERHEKGVLHKHQRALHKYGLMKRQMMSAAHGREPESVEQLESRIVEQENVIQTMELRNYFSLYCLHQETQLVHVYLPLTSHILGAFVNSQIQGHKEMSKVWNDLKPKLSCLFAGPHSVLTPPRSPQEDGVCPH
B6: Cwc22 (protein, UniProt Q8C5N3 1-908, looked up)
Pre-mRNA-splicing factor …: MKSSVAHMKSSGHNRRETHSSYRRSSSPEDRYTEQERSPRDRGYSDYSRSDYERSRRGYSYDDSMESRSRDREKRRERERDADHRKRSRKSPSPDRSPARGGGQSSPQEEPTWKKKKDELDPLLTRTGGAYIPPAKLRMMQEQITDKSSLAYQRMSWEALKKSINGLINKVNISNISIIIQELLQENIVRGRGLLSRSVLQAQSASPIFTHVYAALVAIINSKFPQIGELILKRLILNFRKGYRRNDKQLCLTASKFVAHLINQNVAHEVLCLEMLTLLLERPTDDSVEVAIGFLKECGLKLTQVSPRGINAIFERLRNILHESEIDKRVQYMIEVMFAVRKDGFKDHPVILEGLDLVEEDDQFTHMLPLEDDYNPEDVLNVFKMDPNFMENEEKYKAIKKEILDEGDSDSNTDQGAGSSEDEEEEDEEEEGEDEEGGQKVTIHDKTEINLVSFRRTIYLAIQSSLDFEECAHKLLKMEFAESQTKELCNMILDCCAQQRTYEKFFGLLAGRFCMLKKEYMESFESIFKEQYDTIHRLETNKLRNVAKMFAHLLYTDSLPWSVLECIKLSEETTTSSSRIFVKIFFQELCEYMGLPKLNARLKDETLQPFFEGLLPRDNPRNTRFAINFFTSIGLGGLTDELREHLKNTPKVIVAQKPEAEQKKPALTSSSSESSSASDSSDSESDSSESSSESSSDASDSSSSSSTQSSTSGITAHSAKGTRKKRQGKARGEEVDKLARGHQALERRREGGREDQRHQEGRTERARSERRRAQNSRDADWRDPLAKHIDDRSHENSHSRVGNGREQGSHREPEDRHGEPKKRRERRDSFSENEKQRSRNQDSDNVRRKDRSKSRERSRRHSGHKGDDARCQNSAERRWEKPGRRPEQSRESKRSQDRRREKSPTTQK
B7: Ddx47 (protein, UniProt Q9CWX9 2-455, looked up)
Probable ATP-dependent RNA …: AADEEPDSPSGALQTAAEEEETKTFKDLGVTDVLCEACDQLGWAKPTKIQIEAIPLALQGRDIIGLAETGSGKTGAFALPILNALLETPQRLFALVLTPTRELAFQISEQFEALGSSIGVQCAVIVGGIDSMSQSLALAKKPHIVIATPGRLIDHLENTKGFNLRALKYLVMDEADRILNMDFETEVDKILKVIPRDRKTFLFSATMTKKVQKLQRAALKNPVKCAVSSKYQTVEKLQQYYLFIPSKFKDTYLVYILNELAGNSFMIFCSTCNNTQRTALLLRNLGFTAIPLHGQMSQSKRLGSLNKFKAKARSILLATDVASRGLDIPHVDVVVNFDIPTHSKDYIHRVGRTARAGRSGKAITFVTQYDVELFQRIEHLIGKKLPVFPTQDEEVMMLTERVNEAQRFARMELREHGEKKKRKREDAGDDDDKEGAIGVRNKVAGGKMKKRKGR

The first assay addresses T1, nSR100 (Mus musculus, UniProt Q8BKA3).
T1 construct: host or cells: mouse N2A cells
T1 sequence (Q8BKA3 1-608): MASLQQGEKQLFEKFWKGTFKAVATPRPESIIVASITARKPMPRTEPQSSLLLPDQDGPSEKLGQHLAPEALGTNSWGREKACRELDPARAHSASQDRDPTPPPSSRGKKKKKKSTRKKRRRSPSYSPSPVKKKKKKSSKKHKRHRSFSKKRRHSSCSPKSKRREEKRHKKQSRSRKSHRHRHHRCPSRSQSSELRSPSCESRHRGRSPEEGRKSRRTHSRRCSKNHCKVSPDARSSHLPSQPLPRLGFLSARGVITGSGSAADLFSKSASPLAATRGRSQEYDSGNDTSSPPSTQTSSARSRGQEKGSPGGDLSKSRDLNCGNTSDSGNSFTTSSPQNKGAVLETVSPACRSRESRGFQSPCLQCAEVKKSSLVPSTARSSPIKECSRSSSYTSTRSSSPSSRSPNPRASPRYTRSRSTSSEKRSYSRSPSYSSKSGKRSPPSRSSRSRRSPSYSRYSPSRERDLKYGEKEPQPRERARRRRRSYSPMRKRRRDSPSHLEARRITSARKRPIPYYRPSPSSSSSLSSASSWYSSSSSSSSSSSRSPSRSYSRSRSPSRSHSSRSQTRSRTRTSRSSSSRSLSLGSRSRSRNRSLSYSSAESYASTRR
Briefly: AP-MS nSR100 interaction partners from mouse N2A cells (Table 5). The class given is binding. The note with it: bait Srrm4.
Excerpt: By applying affinity purification coupled to mass-spectrometry (AP-MS), several interaction nSR100 partner proteins were detected that provide insight into mechanisms of post-translational regulation of nSR100 levels.
With B1, the “AvgP (average of the SAINT scores)” value is reported as 1 and the “MaxP (maximal SAINT score)” value amounted to 1.
Turning to B2, the “AvgP (average of the SAINT scores)” value was determined as 1 and the “MaxP (maximal SAINT score)” value is listed as 1.
As to B3, the “AvgP (average of the SAINT scores)” value is listed as 1 and the “MaxP (maximal SAINT score)” value is reported as 1.
B4: the “AvgP (average of the SAINT scores)” value amounted to 1 and the “MaxP (maximal SAINT score)” value was 1.
As for B5, the “AvgP (average of the SAINT scores)” value came to 1 and the “MaxP (maximal SAINT score)” value is 1.
In the case of B6, the “AvgP (average of the SAINT scores)” value stood at 1 and the “MaxP (maximal SAINT score)” value amounted to 1.
On to B7, for which the “AvgP (average of the SAINT scores)” value is listed as 1 and the “MaxP (maximal SAINT score)” value stood at 1.

The assay is the same for the next values; noted with them: bait Srrm4, 0.1 added to prevent division by 0.
As to B1, the “FoldChange between the prey Avg spectra of the bait and control purifications” value turned out to be 65.
As for B2, the “FoldChange between the prey Avg spectra of the bait and control purifications” value was found to be 125.
On the same count and under the same terms, the value for B3 was 75; that for B4 was 65; that for B5 was 145.
On the same count and under the same terms, the value for B6 was 385; that for B7 was 35.

The same assay, now with this note: bait Srrm4, 2 replicates.
Turning to B1, the “AvgSpec (average number of spectra per replicate)” value came out at 6.5.
Take B2: the “AvgSpec (average number of spectra per replicate)” value came out at 12.5.
Turning to B3, the “AvgSpec (average number of spectra per replicate)” value turned out to be 7.5.
Still for that read-out and setting: for B4 the value was 6.5.
Same read-out and setting: the value for B5 was 14.5.
On the same count and under the same terms, the value for B6 was 38.5; that for B7 was 3.5.

The assay is the same for the next values; noted with them: bait Srrm4, biological replicate 1 (first number of the cell), AP-MS.
For B1, the “Spectra (number of spectra for the prey in the purification of the bait)” value came out at 7.
The same measure, in the same setting: for B2 the value was 12.
As to B3, the “Spectra (number of spectra for the prey in the purification of the bait)” value was 5.
B4: the “Spectra (number of spectra for the prey in the purification of the bait)” value turned out to be 6.
For B5, the “Spectra (number of spectra for the prey in the purification of the bait)” value stood at 11.
Still for that read-out and setting: the value for B6 was 37; that for B7 was 3.

Still in this assay, the particulars now being: bait Srrm4, biological replicate 2 (second number of the cell), AP-MS.
As for B1, the “Spectra (number of spectra for the prey in the purification of the bait)” value is 6.
Consider B2, for which the “Spectra (number of spectra for the prey in the purification of the bait)” value amounted to 13.
Take B3: the “Spectra (number of spectra for the prey in the purification of the bait)” value is 10.
Still for that read-out and setting: for B4 the value was 7; for B5, 18.
On the same count and under the same terms, for B6 the value was 40.
Turning to B7, the “Spectra (number of spectra for the prey in the purification of the bait)” value is listed as 4.

Still in this assay, the particulars now being: bait Srrm4, sum of spectra over 2 replicates.
As for B1, the SpecSum is given as 13.
Consider B2, for which the SpecSum is recorded as 25.
Consider B3, for which the SpecSum is listed as 15.
Still for that read-out and setting: for B4 the value was 13; for B5, 29.
Same read-out and setting: the value for B6 was 77; that for B7 was 7.
